According to the supplement of paper PMC10126150:
± gives the standard deviation of the averaged measurements.

Test system: ATP
Experiment: switch fluorescence ratio, 500 uM ATP over buffer (Cy3 cluster intensity, sum of 5 cycles each) (fold (ratio)); higher = stronger signal-on switching upon ATP binding; sequences stand for … in TCGTCGGCAGCGTCAGATGTGTATAAGAGACAGTTTTTTTTTTTTTTTTTTTTTTTTT…TC
Conditions: aptamer strand: ATP DNA aptamer (quencher-CACCTGGGGGAGTATTGCGGAGGAAGG + anchor), 100 nM annealed; ATP concentration: 500 uM
In short: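 Five buffer/ATP imaging cycles were run on Cy3-labelled switching-strand clusters on a modified Illumina MiSeq flow-cell, with NaOH stripping and re-annealing between cycles. In each cycle, clusters annealed to 100 nM quencher-labelled ATP aptamer were imaged in selection buffer, then after 15 min with 500 uM ATP at 22 °C. Per cluster, the fluorescence ratio is summed target-cycle over summed buffer-cycle Cy3 intensity, averaged per switch-domain sequence. Only clusters within 100-1000 RFU were kept.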
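Note: ATP exposure 15 min at 22 °C before imaging.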

AAGGCGAGTA
switch fluorescence ratio: 0.997 ± 0.017

AAGGCGGGTT
switch fluorescence ratio: 0.9894 ± 0.0085

AAGGCGTAC
switch fluorescence ratio: 1.24 ± 0.17

AAGGCGTAGT
switch fluorescence ratio: 0.979 ± 0.055

AAGGCTTAGT
switch fluorescence ratio: 1.01 ± 0.052

AAGGGAAAGG
switch fluorescence ratio: 1 ± 0.013

AAGGGAACGG
switch fluorescence ratio: 0.971 ± 0.022

AAGGGAACTC
switch fluorescence ratio: 1.03 ± 0.02

AAGGGAATAA
switch fluorescence ratio: 1.11 ± 0.11

AAGGGACACA
switch fluorescence ratio: 1.05 ± 0.011

AAGGGAGATT
switch fluorescence ratio: 0.968 ± 0.011

AAGGGAGGAC
switch fluorescence ratio: 0.9939 ± 0.002

AAGGGAGGGC
switch fluorescence ratio: 0.96 ± 0.032

AAGGGATATG
switch fluorescence ratio: 1 ± 0.013

AAGGGATGAT
switch fluorescence ratio: 0.978 ± 0.019

AAGGGATTGA
switch fluorescence ratio: 1.01 ± 0.011

AAGGGCATTT
switch fluorescence ratio: 1.04 ± 0.028

AAGGGCCCAA
switch fluorescence ratio: 1.004 ± 0.0074

AAGGGCCCTT
switch fluorescence ratio: 1.01 ± 0.018

AAGGGCGAGC
switch fluorescence ratio: 0.985 ± 0.1

AAGGGCGCCC
switch fluorescence ratio: 1.14 ± 0.18

AAGGGCGGGT
switch fluorescence ratio: 1.03 ± 0.014

AAGGGCTCGG
switch fluorescence ratio: 1.07 ± 0.14

AAGGGCTGCA
switch fluorescence ratio: 1.032 ± 0.0052

AAGGGCTTCC
switch fluorescence ratio: 1.98 ± 0.038

AAGGGCTTTA
switch fluorescence ratio: 1.01 ± 0.023

AAGGGGCCTG
switch fluorescence ratio: 0.977 ± 0.018

AAGGGGCGTG
switch fluorescence ratio: 0.997 ± 0.03

AAGGGGCTCT
switch fluorescence ratio: 0.993 ± 0.033

AAGGGGCTTC
switch fluorescence ratio: 0.985 ± 0.033

AAGGGGGAGG
switch fluorescence ratio: 0.982 ± 0.034

AAGGGGGAGT
switch fluorescence ratio: 0.996 ± 0.028

AAGGGGGATG
switch fluorescence ratio: 1.01 ± 0.035

AAGGGGGGAG
switch fluorescence ratio: 0.986 ± 0.026

AAGGGGGGCA
switch fluorescence ratio: 0.966 ± 0.037

AAGGGGGGTA
switch fluorescence ratio: 0.997 ± 0.037

AAGGGGGTCA
switch fluorescence ratio: 1.016 ± 0.0063

AAGGGGGTGA
switch fluorescence ratio: 1.01 ± 0.025

AAGGGGTCTC
switch fluorescence ratio: 0.998 ± 0.021

AAGGGGTGAC
switch fluorescence ratio: 0.977 ± 0.041

AAGGGGTGG
switch fluorescence ratio: 1.02 ± 0.029

AAGGGGTTAG
switch fluorescence ratio: 0.975 ± 0.016

AAGGGGTTT
switch fluorescence ratio: 1.03 ± 0.065

AAGGGGTTTT
switch fluorescence ratio: 1 ± 0.036

AAGGGTATGG
switch fluorescence ratio: 0.9729 ± 0.0076

AAGGGTATTT
switch fluorescence ratio: 1.01 ± 0.028

AAGGGTCACC
switch fluorescence ratio: 0.999 ± 0.031

AAGGGTGCTC
switch fluorescence ratio: 1.03 ± 0.047

AAGGGTGTAA
switch fluorescence ratio: 1.01 ± 0.069

AAGGGTTATG
switch fluorescence ratio: 0.994 ± 0.027

AAGGGTTGGC
switch fluorescence ratio: 0.983 ± 0.094

AAGGGTTTCT
switch fluorescence ratio: 1.02 ± 0.038

AAGGGTTTGT
switch fluorescence ratio: 0.986 ± 0.017

AAGGTAATGG
switch fluorescence ratio: 1.02 ± 0.014

AAGGTACCAG
switch fluorescence ratio: 1.03 ± 0.036

AAGGTAGCTT
switch fluorescence ratio: 1.011 ± 0.0094

AAGGTAGGCC
switch fluorescence ratio: 0.96 ± 0.016

AAGGTATTGA
switch fluorescence ratio: 0.9782 ± 0.0046

AAGGTATTTT
switch fluorescence ratio: 1.01 ± 0.037

AAGGTCGGGT
switch fluorescence ratio: 1.01 ± 0.043

AAGGTGAATT
switch fluorescence ratio: 1.06 ± 0.021

AAGGTGGGGT
switch fluorescence ratio: 1.03 ± 0.026

AAGGTGGTTT
switch fluorescence ratio: 0.957 ± 0.048

AAGGTGTTCG
switch fluorescence ratio: 0.957 ± 0.016

AAGGTTAAGT
switch fluorescence ratio: 1.02 ± 0.016

AAGGTTAATA
switch fluorescence ratio: 0.976 ± 0.08

AAGGTTACGC
switch fluorescence ratio: 1.05 ± 0.024

AAGGTTATTG
switch fluorescence ratio: 1.026 ± 0.0088

AAGGTTGGAT
switch fluorescence ratio: 0.987 ± 0.012

AAGGTTGGTT
switch fluorescence ratio: 0.983 ± 0.068

AAGGTTTCGT
switch fluorescence ratio: 1 ± 0.024

AAGGTTTTCG
switch fluorescence ratio: 1.01 ± 0.026

AAGGTTTTGC
switch fluorescence ratio: 0.99 ± 0.058

AAGTAAATTT
switch fluorescence ratio: 1.0226 ± 0.0004

AAGTAACGCG
switch fluorescence ratio: 0.977 ± 0.013

AAGTAACGTC
switch fluorescence ratio: 1.041 ± 0.01

AAGTAAGGGG
switch fluorescence ratio: 0.955 ± 0.054

AAGTAATGGA
switch fluorescence ratio: 1.04 ± 0.06

AAGTACGACT
switch fluorescence ratio: 1.1 ± 0.016

AAGTACGCGG
switch fluorescence ratio: 1.01 ± 0.046

AAGTACGGCC
switch fluorescence ratio: 1.16 ± 0.025

AAGTACTCCA
switch fluorescence ratio: 1.335 ± 0.0082

AAGTAGGGGA
switch fluorescence ratio: 1.02 ± 0.021

AAGTAGGTAG
switch fluorescence ratio: 0.9786 ± 0.002

AAGTAGTCGT
switch fluorescence ratio: 1.01 ± 0.05

AAGTATGCTT
switch fluorescence ratio: 1.01 ± 0.021

AAGTCAAAGT
switch fluorescence ratio: 1.03 ± 0.051

AAGTCAGAGC
switch fluorescence ratio: 0.97 ± 0.097

AAGTCAGCGA
switch fluorescence ratio: 1.02 ± 0.014

AAGTCAGTTG
switch fluorescence ratio: 1.02 ± 0.059

AAGTCATTAA
switch fluorescence ratio: 0.99 ± 0.031

AAGTCCACAC
switch fluorescence ratio: 1.05 ± 0.041

AAGTCCGGCA
switch fluorescence ratio: 1 ± 0.037

AAGTCCGTTG
switch fluorescence ratio: 1.009 ± 0.0083

AAGTCCGTTT
switch fluorescence ratio: 1.02 ± 0.044

AAGTCCTGCC
switch fluorescence ratio: 1.26 ± 0.081

AAGTCCTTGT
switch fluorescence ratio: 1.02 ± 0.013

AAGTCGAGTG
switch fluorescence ratio: 0.994 ± 0.075

AAGTCGCGTT
switch fluorescence ratio: 0.991 ± 0.0024

AAGTCGGGAC
switch fluorescence ratio: 1.08 ± 0.039

AAGTCGTCGA
switch fluorescence ratio: 1.028 ± 0.0025

AAGTCTCGGG
switch fluorescence ratio: 0.995 ± 0.0026

AAGTGAATAT
switch fluorescence ratio: 1.012 ± 0.0095

AAGTGATATA
switch fluorescence ratio: 1.01 ± 0.017

AAGTGATGGT
switch fluorescence ratio: 0.9999 ± 0.0069

AAGTGCAGCC
switch fluorescence ratio: 1.01 ± 0.023

AAGTGCATGG
switch fluorescence ratio: 0.986 ± 0.036

AAGTGCCGAG
switch fluorescence ratio: 0.989 ± 0.027

AAGTGCGGCG
switch fluorescence ratio: 1.03 ± 0.029

AAGTGGAATT
switch fluorescence ratio: 1.03 ± 0.018

AAGTGGATCT
switch fluorescence ratio: 0.988 ± 0.078

AAGTGGATTG
switch fluorescence ratio: 1.003 ± 0.01

AAGTGGCATG
switch fluorescence ratio: 0.974 ± 0.022

AAGTGGTATT
switch fluorescence ratio: 0.992 ± 0.029

AAGTGGTCCT
switch fluorescence ratio: 0.996 ± 0.018

AAGTGGTGGG
switch fluorescence ratio: 0.985 ± 0.024

AAGTGGTGGT
switch fluorescence ratio: 0.989 ± 0.011

AAGTGTGACT
switch fluorescence ratio: 1 ± 0.019

AAGTGTGGGC
switch fluorescence ratio: 0.984 ± 0.023

AAGTGTTGTC
switch fluorescence ratio: 1.1 ± 0.033

AAGTTAATTC
switch fluorescence ratio: 1.013 ± 0.0081

AAGTTAGTTT
switch fluorescence ratio: 0.966 ± 0.043

AAGTTATCTG
switch fluorescence ratio: 1.03 ± 0.027

AAGTTATGTA
switch fluorescence ratio: 1.01 ± 0.031

AAGTTATTGT
switch fluorescence ratio: 1.21 ± 0.33

AAGTTCAAGA
switch fluorescence ratio: 0.99 ± 0.045

AAGTTCCGAG
switch fluorescence ratio: 1.18 ± 0.045

AAGTTCGGG
switch fluorescence ratio: 1.035 ± 0.0057

AAGTTCGGGA
switch fluorescence ratio: 1 ± 0.029

AAGTTCGGTG
switch fluorescence ratio: 0.9695 ± 0.0027

AAGTTCGTTG
switch fluorescence ratio: 1.01 ± 0.036

AAGTTGATGT
switch fluorescence ratio: 1 ± 0.017

AAGTTGCTAG
switch fluorescence ratio: 0.9976 ± 0.0048

AAGTTGGAGG
switch fluorescence ratio: 0.9797 ± 0.0024

AAGTTGGCGC
switch fluorescence ratio: 1.01 ± 0.037

AAGTTGGGG
switch fluorescence ratio: 0.99 ± 0.039

AAGTTGGGT
switch fluorescence ratio: 0.95 ± 0.017

AAGTTGGGTA
switch fluorescence ratio: 0.978 ± 0.024

AAGTTGTGCT
switch fluorescence ratio: 0.972 ± 0.014

AAGTTGTGGC
switch fluorescence ratio: 1.01 ± 0.017

AAGTTGTGGT
switch fluorescence ratio: 1.01 ± 0.023

AAGTTTAGTA
switch fluorescence ratio: 1.01 ± 0.029

AAGTTTATCA
switch fluorescence ratio: 1.003 ± 0.0032

AAGTTTGGGA
switch fluorescence ratio: 1.07 ± 0.091

AAGTTTGGGG
switch fluorescence ratio: 0.983 ± 0.043

AAGTTTGTTG
switch fluorescence ratio: 0.986 ± 0.023

AAGTTTTAAA
switch fluorescence ratio: 0.968 ± 0.013

AAGTTTTATT
switch fluorescence ratio: 0.992 ± 0.043

AAGTTTTCGG
switch fluorescence ratio: 0.989 ± 0.052

AAGTTTTGAG
switch fluorescence ratio: 1.03 ± 0.019

AAGTTTTGTA
switch fluorescence ratio: 0.985 ± 0.05

AAGTTTTTCC
switch fluorescence ratio: 1.04 ± 0.021

AAGTTTTTTC
switch fluorescence ratio: 1.012 ± 0.0053

AATAAAAATG
switch fluorescence ratio: 1.02 ± 0.027

AATAAACGCT
switch fluorescence ratio: 1.04 ± 0.074

AATAAAGGGG
switch fluorescence ratio: 1.19 ± 0.25

AATAAATCCT
switch fluorescence ratio: 1.22 ± 0.021

AATAAATTGA
switch fluorescence ratio: 1.02 ± 0.04

AATAACTCCG
switch fluorescence ratio: 1.224 ± 0.008

AATAAGAAAT
switch fluorescence ratio: 0.994 ± 0.015

AATAATCAAA
switch fluorescence ratio: 1.01 ± 0.006

AATACAAGGC
switch fluorescence ratio: 1.076 ± 0.006

AATACCAAAT
switch fluorescence ratio: 0.999 ± 0.049

AATACCGGCA
switch fluorescence ratio: 1.04 ± 0.045

AATACCTTTC
switch fluorescence ratio: 2.3 ± 0.14

AATACGGGG
switch fluorescence ratio: 0.985 ± 0.016

AATACGGGGG
switch fluorescence ratio: 1.03 ± 0.13

AATAGAACTT
switch fluorescence ratio: 1.02 ± 0.061

AATAGAGGAT
switch fluorescence ratio: 0.971 ± 0.039

AATAGATATG
switch fluorescence ratio: 1.01 ± 0.0018

AATAGCATTG
switch fluorescence ratio: 0.972 ± 0.029

AATAGCGACT
switch fluorescence ratio: 1.026 ± 0.0052

AATAGGACAA
switch fluorescence ratio: 0.982 ± 0.037

AATAGGATAG
switch fluorescence ratio: 1.02 ± 0.011

AATAGGCACC
switch fluorescence ratio: 0.993 ± 0.018

AATAGGCATG
switch fluorescence ratio: 0.979 ± 0.0098

AATAGGCGCG
switch fluorescence ratio: 1.02 ± 0.014

AATAGGGTCG
switch fluorescence ratio: 0.975 ± 0.064

AATAGGTTGT
switch fluorescence ratio: 0.992 ± 0.015

AATAGTGCCC
switch fluorescence ratio: 0.999 ± 0.053

AATAGTGGTA
switch fluorescence ratio: 1 ± 0.029

AATAGTGTCC
switch fluorescence ratio: 1.01 ± 0.032

AATAGTTATT
switch fluorescence ratio: 0.9791 ± 0.003

AATATAAAGG
switch fluorescence ratio: 1 ± 0.031

AATATACGT
switch fluorescence ratio: 1.05 ± 0.032

AATATAGGAA
switch fluorescence ratio: 1.016 ± 0.0092

AATATATCGC
switch fluorescence ratio: 0.977 ± 0.018

AATATCGGGT
switch fluorescence ratio: 0.97 ± 0.019

AATATCTGTT
switch fluorescence ratio: 0.997 ± 0.019

AATATCTTGC
switch fluorescence ratio: 1.05 ± 0.028

AATATGAAGG
switch fluorescence ratio: 1 ± 0.019

AATATGTAAT
switch fluorescence ratio: 0.989 ± 0.021

AATATGTTTT
switch fluorescence ratio: 1.01 ± 0.026

AATATTTAAC
switch fluorescence ratio: 0.9828 ± 0.0024

AATATTTGAA
switch fluorescence ratio: 1.02 ± 0.021

AATATTTTAT
switch fluorescence ratio: 1.014 ± 0.0022

AATATTTTCG
switch fluorescence ratio: 0.998 ± 0.038

AATATTTTGT
switch fluorescence ratio: 0.9833 ± 0.004

AATCAAACTA
switch fluorescence ratio: 1.05 ± 0.028

AATCAAGTCT
switch fluorescence ratio: 0.999 ± 0.011
